What is called Kd is the concentration at which binding is half-saturated. Low values mean higher affinity, high ones lower affinity.

Like-named read-outs stand apart in the source and are kept apart here.

The target in experiment [1] is CBL47–435 pY371 (human) (UniProt P22681).
Experiment [2] addresses GST-CBL47–435 WT (human) (UniProt P22681). As to the kind of experiment: SPR. Background: In SPR one partner is held on a chip, and binding of the other changes the refractive index at the surface.
Experiment [3] deals with GST-CBL47–435 Y368F (human) (UniProt P22681). The experiment in a line: SPR.
Chain of GST-CBL47–435 Y368F (human) (P22681 47-435 Y368F): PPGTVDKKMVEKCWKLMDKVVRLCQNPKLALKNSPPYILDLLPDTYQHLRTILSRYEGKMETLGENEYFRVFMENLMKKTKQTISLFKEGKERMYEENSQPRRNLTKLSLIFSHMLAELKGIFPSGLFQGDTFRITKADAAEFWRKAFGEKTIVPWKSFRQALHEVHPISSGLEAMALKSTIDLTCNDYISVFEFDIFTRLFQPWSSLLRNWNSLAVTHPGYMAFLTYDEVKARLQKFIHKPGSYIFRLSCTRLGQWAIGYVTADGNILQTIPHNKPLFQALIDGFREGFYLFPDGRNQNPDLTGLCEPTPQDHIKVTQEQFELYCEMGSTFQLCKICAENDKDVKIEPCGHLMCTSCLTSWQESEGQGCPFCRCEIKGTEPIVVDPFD
Experiment [4] deals with GST-CBL47–435 M222E (human) (UniProt P22681). The experiment in a line: SPR.
Chain of GST-CBL47–435 M222E (human) (P22681 47-435 M222E): as the sequence (P22681 47-435 Y368F) above, with M176E, F322Y counted along it
Experiment [5] addresses GST-CBL47–435 WT (human) (UniProt P22681). As to the kind of experiment: SPR. This is another data set of the same source.
The target of experiment [6] is GST-CBL47–435 Y368F pY371 (human) (UniProt P22681). The experiment in a line: SPR.
Chain of GST-CBL47–435 Y368F pY371 (human) (P22681 47-435 Y368F): as the sequence (P22681 47-435 Y368F) above
For experiment [7], the target named is GST-CBL47–435 Y371F (human) (UniProt P22681). As to the kind of experiment: SPR.
Chain of GST-CBL47–435 Y371F (human) (P22681 47-435 Y371F): as the sequence (P22681 47-435 Y368F) above, with F322Y, Y325F counted along it

Chain of GST-CBL47–435 WT (human) (P22681 47-435): as the sequence (P22681 47-435 Y368F) above, with F322Y counted along it
Chain of UbcH5B (from UniProt P62837 1-147) (enzyme; other documents disagree on this pair) (P62837 whole entry): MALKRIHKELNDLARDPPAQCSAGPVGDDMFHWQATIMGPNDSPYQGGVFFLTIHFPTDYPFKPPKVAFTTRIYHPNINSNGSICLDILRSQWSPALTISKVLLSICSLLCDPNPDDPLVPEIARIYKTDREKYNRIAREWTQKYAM
Chain of CBL47–435 pY371 (human) (P22681 47-435): as the sequence (P22681 47-435 Y368F) above, with F322Y counted along it
Chain of UbcH5B (from UniProt P62837 1-147) (enzyme) (P62837 whole entry): as the sequence (P62837 whole entry) above

Regarding “UbcH5B (from UniProt P62837 1-147) (enzyme)”, the Km (UbcH5B~Ub) of CBL47–435 pY371 autoubiquitination, Michaelis-Menten, 22°C in experiment [1] was 6.5 μM.
As to “UbcH5B (from UniProt P62837 1-147) (enzyme; other documents disagree on this pair)”, the Kd in experiment [2] is 244 µM; in experiment [3] it was 138 µM; in experiment [4] it was 70 µM; in experiment [5] it was 311 µM; in experiment [6], 28 µM; in experiment [7], 250 µM.
For the substance ZAP-70 peptide, the values for the dissociation constant Kd in experiment [5] and in experiment [6] were 17 µM and 11 µM, respectively.

Source of the values: article PMC3880865.
